Experimental data reported in the DeepSol protein solubility set.

Assay: soluble on expression in E. coli; label from the status in PepcDB or PDB records

| Sequence | soluble on expression in E. coli |
| --- | --- |
| MDRKIVQLIHNFSGTEKLKAAVFSHDEQCFFDFVSFDELNSKLTGFLLFDSLEKLFKLVETIQQKRSWLYVDELWLINTATENQQLNEVSVWLVKKELAQVGVLTQLDTSLVKLLMASKNTDSALYNTYIKPVELQQFTQTPAPDNVNAEQSHLTLESTTDLNNSQLANTPALWEVEQTTQELLPTMDFSKFIDELDQITKNFSDLELEPLSFNEGFDEWNQE | soluble |
| MEKYQVKFMPDQQVIEVEKGTSLLKAASQAGIFIKSSCGGKGTCGACKVTVISGEAKSERTGNLSPEQLSRGVRLSCHTFVEGDLTVEVPPESRLQAHQVLLENANAALLTETSKDLLTYYGYHPLARKVNIRCSEPTLTDNAGDWARLSLELKRVLQSDKPLTIPLSVLQTLPETLRQAHWDLSVILTDLELGYTVLHVEPANDRPCYGLAIDVGTTTVVVYLVDLDSGEIVDKQGSYNKQAQFGDDVISRIVYAVDSKENMAEIQKAVVDTVNALIDGILERQSLTSQDIASAVIAGNTTMSQLFLGINPRYIRLEPYIPTVNSTPAVSAREIGLRLLPEALIHTYPSVASYVGGDIVSGALATDMANSDEIILFIDIGTNGEIVLGNKDWLVSCACSAGPCFEGGGILFGMRAMPGAIERVDIDPESLDVKLKVVGKIAPVGICGSGLVDCLAKLRKAGIIDRAGNFQLEHPSQSARIRATEDDKEFVLAWAHQAGGDKDIVISENDVKNLIRAKGAIYAGIRSLLQTVALEIDMIERIVIGGGFGNYLNVHDSVEIGLLPDLPQEKFEFIGNSSVKGARLALLSQKAWNEAADLARKMTYIELSIGTTFMDEFVSALFLPHTDLSLFPSVEGTFLEHHHHHH | soluble |
| MSLKVDQKEEQVQKRLEALDKLTKTLAIVEQYYVDDQNISDLVDKSLSGLLSNLDAHSSFLNEKDFNDMKIQTNGEFGGLGITVGMKDGALTVVSPIEGTPADKAGIKSGDIILKINDEATLGINLNDAVDKMRGKPKTQITLTIFRKGATKPFDVTLTREIIKIESVYAKMIENENILYLRVTNFDKNVVDVASKELKKYPNVKGVILDLRNNPGGLLNQAIGLVNLFVDKGVIVSQKGRIASENQEYKADPKNKISNASLVVLVNGGSASASEIVSGALQDLKRGVIVGENTFGKGSVQQIIPINKTEALRLTIARYYLPSGRTIQAVGVKPDIEVFPGKVNTQEGHHHHHH | soluble |
| GPGSPKLVRINTNEKGITNVQLARAPVNSMSLELFQELNQWMLWLGSNEETKAVIISSAIPTVFSAGLDLVEVHNPKPDRVAVFWQSFQEMWLILNSFPKPIIAAITGNSPAAGCIIAMGCDYRVMARGPKGNTNNNRLYRIGLNETKLGLVAPPWVMPAYAYLLGSRQAERMLQLGETPVADDARNLGLIDEVAADEERAIEVAYQQAERFLSVPQQSRWMARDMMRREYLQMLASDEERNYDTEFFTQFVQSPEVQKNLESYLERLKSCSRK | soluble |
| MTDHSNTRVVVGMSGGVDSSVVALLLKQQGYDVVGVFMKNWDDTDENGVCTATEDYKDVAKVADKIGIPYYSINFEKEYWDRVFTYFLDEYKKGRTPNPDVICNKEIKFKAFLDYAMDLGADYIATGHYARLQHDEDGTMHLLRGVDSNKDQTYFLSQLDSKTLQKVMFPLGEMVKPDVRKLALNAGLATAKKKDSVGICFIGEKNFKEFLGHYLPATPGKMMTFDGQVKGEHAGLMYYTIGQRRGLGIGGDGEDNEPWFVVGKDLKKNILYVGKGYHNPHLYATHLKASDLHFVTDEDLGNDFHVTAKFRYRQKDSGVTVHFNDDHTEVTVTFDDPVRAITPGQAVVFYNGEECLGSGMIDAAYNDERVLQYVLEHHHHHH | not soluble |
| MDEKLVKEVIFSFREVQRKTHHVLAEEAANREITTTQLLAIRELQKESDLTLGELAERMKLGKSTVSGIVDRLVKAGFLKRTRNESNRRALSLELTEKGATKAAETYHVFFNRLEPILEIGEERLKEMLEMHQEIITILEREGARD | not soluble |
| SLDPLFTTQILKYKGDESFTCNDTLVREIKLEIFINDEKVGALMATPVDEQALAIGYLMSENIIAKVSDIESIETKDDGMSVHIKAKIDKENLAKLNAEGVVISGCGRAHTANIDPEAIEASKISSDAKFSKDEILKQMSTFYTQCELYEKTGCVHTAKLFVDEKTFFIGEDIAQHNTIDKALGKACLAGVDLSQCFLMVSGRLSSEMVAKAVMHKIPVLVSRTAPTCLGVMIARKFDLTLCGFARENKINIYSGEFRIHG | soluble |
| MYPLNIDGEELYLRDLKINDLPNLLKWYNNIDDFSLATGVYKPITLKEILERYFKCQSSSKDFFAGIYIRKSGEMIGVLKGWLDCEKDLSAWINSIIIDPGFQRKGYGSKTVNLFIRHVKECCNVKRVYLSVAEENFKGMSFWKQQSFREVKKISKDRDSVSKCKSIVIMCREI | not soluble |
